Assay results taken from patent publication US20140087995A1 (published 2014).
Numbered stars: 1 amine (or outer) side, 2 acyl side, 3 side chain; on linkers, the order of the positions; unused ones are H or OH. Bridge positions count the residues as written; N and C are the ends. * marks the point of attachment. C20 diacid = O=C(O)CCCCCCCCCCCCCCCCCCC(=O)*; γGlu = O=C(O)[C@H](CCC(=O)[*:2])N[*:1]

T1: human amylin receptor (amylin 3(a) receptor: human calcitonin receptor plus RAMP-3) (human, UniProt P30988 25-474; O60896 24-148)
T1 sequence (looked up) 1: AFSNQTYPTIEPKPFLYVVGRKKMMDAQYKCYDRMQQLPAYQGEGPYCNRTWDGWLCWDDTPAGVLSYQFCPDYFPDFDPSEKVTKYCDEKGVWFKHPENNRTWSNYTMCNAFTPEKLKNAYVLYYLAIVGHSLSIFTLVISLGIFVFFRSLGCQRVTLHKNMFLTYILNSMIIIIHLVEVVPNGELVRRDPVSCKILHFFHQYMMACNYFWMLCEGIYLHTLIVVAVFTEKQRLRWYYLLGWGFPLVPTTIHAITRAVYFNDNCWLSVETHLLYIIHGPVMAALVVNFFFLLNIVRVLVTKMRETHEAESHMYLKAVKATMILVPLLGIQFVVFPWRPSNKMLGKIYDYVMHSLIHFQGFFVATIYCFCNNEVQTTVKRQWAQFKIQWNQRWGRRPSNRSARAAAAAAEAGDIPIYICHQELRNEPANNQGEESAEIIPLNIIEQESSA
T1 sequence (looked up) 2: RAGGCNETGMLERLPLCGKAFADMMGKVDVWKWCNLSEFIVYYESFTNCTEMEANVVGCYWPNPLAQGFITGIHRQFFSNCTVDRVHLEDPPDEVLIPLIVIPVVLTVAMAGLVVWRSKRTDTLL

T2: human calcitonin receptor (human, UniProt P30988 25-474)
T2 sequence (looked up): T1 sequence (looked up) 1

B1: N^α1N^α1-[(4S)-4-carboxy-4-(19-carboxynonadecanoylamino)butanoyl]-[Glu14,Arg17,Pro21,Pro27,Glu35]-h-amylin (peptide)
peptide: {C20 diacid-γGlu}-KCNTATCATQRLAEFLRHSSPNFGAIPSSTNVGSETY-NH2
modifications: disulfide 2-7
SMILES: CC[C@H](C)[C@H](NC(=O)[C@H](C)NC(=O)CNC(=O)[C@H](Cc1ccccc1)NC(=O)[C@H](CC(N)=O)NC(=O)[C@@H]1CCCN1C(=O)[C@H](CO)NC(=O)[C@H](CO)NC(=O)[C@H](Cc1c[nH]cn1)NC(=O)[C@H](CCCNC(=N)N)NC(=O)[C@H](CC(C)C)NC(=O)[C@H](Cc1ccccc1)NC(=O)[C@H](CCC(=O)O)NC(=O)[C@H](C)NC(=O)[C@H](CC(C)C)NC(=O)[C@H](CCCNC(=N)N)NC(=O)[C@H](CCC(N)=O)NC(=O)[C@@H](NC(=O)[C@H](C)NC(=O)[C@@H]1CSSC[C@H](NC(=O)[C@H](CCCCN)NC(=O)CC[C@H](NC(=O)CCCCCCCCCCCCCCCCCCC(=O)O)C(=O)O)C(=O)N[C@@H](CC(N)=O)C(=O)N[C@@H]([C@@H](C)O)C(=O)N[C@@H](C)C(=O)N[C@@H]([C@@H](C)O)C(=O)N1)[C@@H](C)O)C(=O)N1CCC[C@H]1C(=O)N[C@@H](CO)C(=O)N[C@@H](CO)C(=O)N[C@H](C(=O)N[C@@H](CC(N)=O)C(=O)N[C@H](C(=O)NCC(=O)N[C@@H](CO)C(=O)N[C@@H](CCC(=O)O)C(=O)N[C@H](C(=O)N[C@@H](Cc1ccc(O)cc1)C(N)=O)[C@@H](C)O)C(C)C)[C@@H](C)O
notes: also called compound 22
B2: N^α1-[(4S)-4-carboxy-4-(19-carboxynonadecanoylamino)butanoyl]-[Arg17,Pro21,Pro27,Pro31,Glu35]-h-amylin (peptide)
peptide: {C20 diacid-γGlu}-KCNTATCATQRLANFLRHSSPNFGAIPSSTPVGSETY-NH2
modifications: disulfide 2-7
SMILES: CC[C@H](C)[C@H](NC(=O)[C@H](C)NC(=O)CNC(=O)[C@H](Cc1ccccc1)NC(=O)[C@H](CC(N)=O)NC(=O)[C@@H]1CCCN1C(=O)[C@H](CO)NC(=O)[C@H](CO)NC(=O)[C@H](Cc1c[nH]cn1)NC(=O)[C@H](CCCNC(=N)N)NC(=O)[C@H](CC(C)C)NC(=O)[C@H](Cc1ccccc1)NC(=O)[C@H](CC(N)=O)NC(=O)[C@H](C)NC(=O)[C@H](CC(C)C)NC(=O)[C@H](CCCNC(=N)N)NC(=O)[C@H](CCC(N)=O)NC(=O)[C@@H](NC(=O)[C@H](C)NC(=O)[C@@H]1CSSC[C@H](NC(=O)[C@H](CCCCN)NC(=O)CC[C@H](NC(=O)CCCCCCCCCCCCCCCCCCC(=O)O)C(=O)O)C(=O)N[C@@H](CC(N)=O)C(=O)N[C@@H]([C@@H](C)O)C(=O)N[C@@H](C)C(=O)N[C@@H]([C@@H](C)O)C(=O)N1)[C@@H](C)O)C(=O)N1CCC[C@H]1C(=O)N[C@@H](CO)C(=O)N[C@@H](CO)C(=O)N[C@H](C(=O)N1CCC[C@H]1C(=O)N[C@H](C(=O)NCC(=O)N[C@@H](CO)C(=O)N[C@@H](CCC(=O)O)C(=O)N[C@H](C(=O)N[C@@H](Cc1ccc(O)cc1)C(N)=O)[C@@H](C)O)C(C)C)[C@@H](C)O
notes: also called compound 28
B3: N^α1-[(4S)-4-carboxy-4-(19-carboxynonadecanoylamino)butanoyl]-[His14,Arg17,Pro21,Pro27,Glu35]-h-amylin (peptide)
peptide: {C20 diacid-γGlu}-KCNTATCATQRLAHFLRHSSPNFGAIPSSTNVGSETY-NH2
modifications: disulfide 2-7
SMILES: CC[C@H](C)[C@H](NC(=O)[C@H](C)NC(=O)CNC(=O)[C@H](Cc1ccccc1)NC(=O)[C@H](CC(N)=O)NC(=O)[C@@H]1CCCN1C(=O)[C@H](CO)NC(=O)[C@H](CO)NC(=O)[C@H](Cc1c[nH]cn1)NC(=O)[C@H](CCCNC(=N)N)NC(=O)[C@H](CC(C)C)NC(=O)[C@H](Cc1ccccc1)NC(=O)[C@H](Cc1c[nH]cn1)NC(=O)[C@H](C)NC(=O)[C@H](CC(C)C)NC(=O)[C@H](CCCNC(=N)N)NC(=O)[C@H](CCC(N)=O)NC(=O)[C@@H](NC(=O)[C@H](C)NC(=O)[C@@H]1CSSC[C@H](NC(=O)[C@H](CCCCN)NC(=O)CC[C@H](NC(=O)CCCCCCCCCCCCCCCCCCC(=O)O)C(=O)O)C(=O)N[C@@H](CC(N)=O)C(=O)N[C@@H]([C@@H](C)O)C(=O)N[C@@H](C)C(=O)N[C@@H]([C@@H](C)O)C(=O)N1)[C@@H](C)O)C(=O)N1CCC[C@H]1C(=O)N[C@@H](CO)C(=O)N[C@@H](CO)C(=O)N[C@H](C(=O)N[C@@H](CC(N)=O)C(=O)N[C@H](C(=O)NCC(=O)N[C@@H](CO)C(=O)N[C@@H](CCC(=O)O)C(=O)N[C@H](C(=O)N[C@@H](Cc1ccc(O)cc1)C(N)=O)[C@@H](C)O)C(C)C)[C@@H](C)O
notes: also called compound 30
B4: N^α1-[(4S)-4-carboxy-4-(19-carboxynonadecanoylamino)butanoyl]-[Arg17,Pro21,Pro27,Pro34,Glu35]-h-amylin (peptide)
peptide: {C20 diacid-γGlu}-KCNTATCATQRLANFLRHSSPNFGAIPSSTNVGPETY-NH2
modifications: disulfide 2-7
SMILES: CC[C@H](C)[C@H](NC(=O)[C@H](C)NC(=O)CNC(=O)[C@H](Cc1ccccc1)NC(=O)[C@H](CC(N)=O)NC(=O)[C@@H]1CCCN1C(=O)[C@H](CO)NC(=O)[C@H](CO)NC(=O)[C@H](Cc1c[nH]cn1)NC(=O)[C@H](CCCNC(=N)N)NC(=O)[C@H](CC(C)C)NC(=O)[C@H](Cc1ccccc1)NC(=O)[C@H](CC(N)=O)NC(=O)[C@H](C)NC(=O)[C@H](CC(C)C)NC(=O)[C@H](CCCNC(=N)N)NC(=O)[C@H](CCC(N)=O)NC(=O)[C@@H](NC(=O)[C@H](C)NC(=O)[C@@H]1CSSC[C@H](NC(=O)[C@H](CCCCN)NC(=O)CC[C@H](NC(=O)CCCCCCCCCCCCCCCCCCC(=O)O)C(=O)O)C(=O)N[C@@H](CC(N)=O)C(=O)N[C@@H]([C@@H](C)O)C(=O)N[C@@H](C)C(=O)N[C@@H]([C@@H](C)O)C(=O)N1)[C@@H](C)O)C(=O)N1CCC[C@H]1C(=O)N[C@@H](CO)C(=O)N[C@@H](CO)C(=O)N[C@H](C(=O)N[C@@H](CC(N)=O)C(=O)N[C@H](C(=O)NCC(=O)N1CCC[C@H]1C(=O)N[C@@H](CCC(=O)O)C(=O)N[C@H](C(=O)N[C@@H](Cc1ccc(O)cc1)C(N)=O)[C@@H](C)O)C(C)C)[C@@H](C)O
notes: also called compound 29
B5: N^α1-[(4S)-4-carboxy-4-(19-carboxynonadecanoylamino)butanoyl]-[Glu14,Arg17,Pro21,Pro27,His35]-h-amylin (peptide)
peptide: {C20 diacid-γGlu}-KCNTATCATQRLAEFLRHSSPNFGAIPSSTNVGSHTY-NH2
modifications: disulfide 2-7
SMILES: CC[C@H](C)[C@H](NC(=O)[C@H](C)NC(=O)CNC(=O)[C@H](Cc1ccccc1)NC(=O)[C@H](CC(N)=O)NC(=O)[C@@H]1CCCN1C(=O)[C@H](CO)NC(=O)[C@H](CO)NC(=O)[C@H](Cc1c[nH]cn1)NC(=O)[C@H](CCCNC(=N)N)NC(=O)[C@H](CC(C)C)NC(=O)[C@H](Cc1ccccc1)NC(=O)[C@H](CCC(=O)O)NC(=O)[C@H](C)NC(=O)[C@H](CC(C)C)NC(=O)[C@H](CCCNC(=N)N)NC(=O)[C@H](CCC(N)=O)NC(=O)[C@@H](NC(=O)[C@H](C)NC(=O)[C@@H]1CSSC[C@H](NC(=O)[C@H](CCCCN)NC(=O)CC[C@H](NC(=O)CCCCCCCCCCCCCCCCCCC(=O)O)C(=O)O)C(=O)N[C@@H](CC(N)=O)C(=O)N[C@@H]([C@@H](C)O)C(=O)N[C@@H](C)C(=O)N[C@@H]([C@@H](C)O)C(=O)N1)[C@@H](C)O)C(=O)N1CCC[C@H]1C(=O)N[C@@H](CO)C(=O)N[C@@H](CO)C(=O)N[C@H](C(=O)N[C@@H](CC(N)=O)C(=O)N[C@H](C(=O)NCC(=O)N[C@@H](CO)C(=O)N[C@@H](Cc1c[nH]cn1)C(=O)N[C@H](C(=O)N[C@@H](Cc1ccc(O)cc1)C(N)=O)[C@@H](C)O)C(C)C)[C@@H](C)O
notes: also called compound 18
B6: N^α1-[(4S)-4-carboxy-4-(19-carboxynonadecanoylamino)butanoyl]-[Arg17,Pro21,Pro27,Glu35]-h-amylin (peptide)
peptide: KCNTATCATQRLANFLRHSSPNFGAIPSSTNVGSETY
modifications: C20 diacid-gGlu on the alpha amino group of the N-terminal residue (Lys1); disulfide Cys2-Cys7 and C-terminal amide as in human amylin
notes: also called compound 23

What follows are binders tested against T1, human amylin receptor (amylin 3(a) …) (assay: cell-based or functional assay).

Ratio hCT/hAmylin funct.	hAmylin-R funct. EC50 (pM)	Binder
3.8	270	B1
9.2	220	B2
	134	B3
8.7	99	B4
4.8	154	B5
8.9	340	B6
2.2	243	{C20 diacid-γGlu}-KCNTATCATQRLAEFLRHSSPNFGAILPSTNVGSETY-NH2 (disulfide 2-7, also called compound 33)

Each binder was assayed against T2, human calcitonin receptor (assay: cell-based or functional assay).

hCTR funct. EC50 (pM)	Binder
1030	B1
2030	B2
1680	B3
857	B4
742	B5
3020	B6
528	{C20 diacid-γGlu}-KCNTATCATQRLAEFLRHSSPNFGAILPSTNVGSETY-NH2 (disulfide 2-7, also called compound 33)

What follows are binders tested against T1, human amylin receptor (amylin 3(a) …) (assay: SPA competition binding, displacement of 125I-rat amylin, membranes of BHK amylin 3(a)/CRE-luc cells).
Procedure: The binding assay was performed using scintillation proximity assay (SPA) beads (RPNQ0001) from PerkinElmer and cell membranes from the Amylin 3(a)/CRE-luc cells (as described in Assay (II)) were used. Membranes were prepared in the following way; the cells were rinsed with PBS and incubated with Versene for approximately 5 min before harvesting. The cells were flushed with PBS and the cell-suspension was centrifuged for 5 min at 1000 rpm. Cells were homogenized (ultrathurrax) in a buffer containing 20 mM Na-HEPES and 10 mM EDTA (pH 7.4) and centrifuged at 20.000 rpm for 15 min. The resulting pellet was resuspended, homogenized and centrifuged (20.000 rpm, 15 min) in a buffer containing 20 mM Na-HEPES and 0.1 mM EDTA (pH 7.4, buffer 2). The resulting pellet was resuspended in buffer 2 and protein concentration was measured (BCA protein Assay, Pierce). The homogenate was kept cold during the whole procedure. The membranes were kept at −80° C. until use. The assay was performed in a 384 well Optiplate (PerkinElmer) in a total volume of 40 ul. Membranes were mixed with SPA beads. Final concentration of membranes 35 ng/μL final and SPA beads was 0.05 mg/well. Test-compounds were dissolved in DMSO and further diluted in assay buffer (50 mM Hepes, pH 7.4, 1 mM CaCl2, 5 mM MgCl₂, 0.1% OA and 0.02% Tween20). […] The final mixture was incubated with shaking at 400 rpm for 120 min at 25° C. prior to centrifugation (1500 rpm, 10 min). Samples were analyzed on TopCounter™ (Packard). The IC₅₀ was calculated using (one site binding competition analysis) GraphPad Prism5 as a measure of receptor affinity.

IC50 [pM]	Binder
794	B1
610	B2
919	B3
577	B4
554	B5
871	B6
915	{C20 diacid-γGlu}-KCNTATCATQRLAEFLRHSSPNFGAILPSTNVGSETY-NH2 (disulfide 2-7, also called compound 33)
